Measured values: US20220153839A1

Target: ROR1 (reagent by which anti-ROR1 recognition of CAR-T cells was read; form not stated)
Assay: FACS of EGFR+ transduced T cells

ROR1 (reagent by which anti-ROR1 recognition of CAR-T cells was read; form not stated), sequence (Q01973 24-403): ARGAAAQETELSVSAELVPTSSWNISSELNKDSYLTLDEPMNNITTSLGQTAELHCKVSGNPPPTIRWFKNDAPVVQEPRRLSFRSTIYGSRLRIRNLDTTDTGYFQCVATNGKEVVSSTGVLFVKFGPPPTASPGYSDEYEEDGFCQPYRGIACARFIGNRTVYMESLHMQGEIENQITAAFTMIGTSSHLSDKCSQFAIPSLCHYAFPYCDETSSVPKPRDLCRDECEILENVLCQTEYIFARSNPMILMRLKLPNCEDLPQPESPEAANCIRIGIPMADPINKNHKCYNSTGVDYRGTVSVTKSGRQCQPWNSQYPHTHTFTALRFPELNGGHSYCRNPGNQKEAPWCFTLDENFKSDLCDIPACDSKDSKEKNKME

percent of CAR-T cells with anti-ROR1 recognition [%]	Binder
> 90	XBR1-402 chimeric antigen receptor with short spacer, on CD8+ T cells (protein, part only; not given: scFv linker, spacer, signaling parts, not shown: large carriers) scFv, part: QEQQKESGGGLFKPTDTLTLTCTASGFDISSYYMSWVRQAPGNGLEWIGAIGISGNAYYASWAKSRSTITRNTNLNTVTLKMTSLTAADTATYFCARDHPTYGMDLWGPGTLVTVSSSYELTQLPSVSVSLGQTARITCEGNNIGSKAVHWYQQKPGLAPGLLIYDDDERPSGVPDRFSGSNSGDTATLTISGAQAGDEADYYCQVWDSSAYVFGGGTQLTVTG
> 90	XBR1-402 chimeric antigen receptor with long spacer, on CD8+ T cells (protein, part only; not given: scFv linker, spacer, signaling parts, not shown: large carriers) scFv, part: QEQQKESGGGLFKPTDTLTLTCTASGFDISSYYMSWVRQAPGNGLEWIGAIGISGNAYYASWAKSRSTITRNTNLNTVTLKMTSLTAADTATYFCARDHPTYGMDLWGPGTLVTVSSSYELTQLPSVSVSLGQTARITCEGNNIGSKAVHWYQQKPGLAPGLLIYDDDERPSGVPDRFSGSNSGDTATLTISGAQAGDEADYYCQVWDSSAYVFGGGTQLTVTG
